Source: the supplement of paper PMC11246515
± gives the standard deviation of the averaged measurements.

Test: total protein half-life in vivo (active degradation + dilution); higher = more stable protein
[1] = E. coli NCM3722 delta-clpP delta-lon delta-hslV, growth: N-lim chemostat, doubling time 6 h
[2] = E. coli NCM3722 delta-clpP, growth: N-lim chemostat, doubling time 6 h
[3] = E. coli NCM3722 delta-hslV, growth: N-lim chemostat, doubling time 6 h
[4] = E. coli NCM3722 delta-lon, growth: N-lim chemostat, doubling time 6 h
[5] = E. coli NCM3722 delta-smpB, growth: N-lim chemostat, doubling time 6 h
[6] = wild type E. coli NCM3722, growth: C-lim chemostat, doubling time 3 h
[7] = wild type E. coli NCM3722, growth: C-lim chemostat, doubling time 6 h
[8] = wild type E. coli NCM3722, growth: C-lim chemostat, doubling time 12 h
[9] = wild type E. coli NCM3722, growth: N-lim chemostat, doubling time 6 h
[10] = wild type E. coli NCM3722, growth: N-lim chemostat, doubling time 12 h
[11] = wild type E. coli NCM3722, growth: P-lim chemostat, doubling time 6 h
[12] = wild type E. coli NCM3722, growth: P-lim chemostat, doubling time 12 h

| Sequence | total protein half-life in vivo [1] [h] | total protein half-life in vivo [2] [h] | total protein half-life in vivo [3] [h] | total protein half-life in vivo [4] [h] | total protein half-life in vivo [5] [h] | total protein half-life in vivo [6] [h] | total protein half-life in vivo [7] [h] | total protein half-life in vivo [8] [h] | total protein half-life in vivo [9] [h] | total protein half-life in vivo [10] [h] | total protein half-life in vivo [11] [h] | total protein half-life in vivo [12] [h] |
| --- | --- | --- | --- | --- | --- | --- | --- | --- | --- | --- | --- | --- |
| MMELMVVHPHIFWLSLGGLLLAAEMLGGNGYLLWSGVAAVITGLVVWLVPLGWEWQGVMFAILTLLAAWLWWKWLSRRVREQKHSDSHLNQRGQQLIGRRFVLESPLVNGRGHMRVGDSSWPVSASEDLGAGTHVEVIAIEGITLHIRAVSS [P0AAS3] | 6.35 ± 0.63 | 6.38 ± 0.81 | 5.57 ± 0.15 | 5.91 | 6.81 | 2.86 | > 8 | 10.5 ± 1.8 | 6.42 ± 0.38 | 11.1 ± 0.17 | 7.12 | 10.6 ± 0.41 |
| MAVIQDIIAALWQHDFAALADPHIVSVVYFVMFATLFLENGLLPASFLPGDSLLILAGALIAQGVMDFLPTIAILTAAASLGCWLSYIQGRWLGNTKTVKGWLAQLPAKYHQRATCMFDRHGLLALLAGRFLAFVRTLLPTMAGISGLPNRRFQFFNWLSGLLWVSVVTSFGYALSMIPFVKRHEDQVMTFLMILPIALLTAGLLGTLFVVIKKKYCNA [P0AA60] | 4.46 | 4.55 | 3.26 |  |  | 2.23 | 4.04 ± 1.4 | 7.25 |  |  | > 8 | 8.67 |
| MINDIKWVQAQRKATDWRQAVEIATRPLVAYGAAQPCYVNGIIENTLNWGPYYLIAPGIALPHARPEQGANYNQVSITTLRTPVAFGNEECDPVWLLLCVSATDANAHILTIQRISQFIDSPQRLTAVGNASTDDALFALVSG | 4.94 | 4.17 ± 0.58 | 4.11 | 4.24 ± 0.33 | 4.08 ± 0.47 |  | 4.65 ± 0.36 | 6.74 ± 0.098 | 4.66 | 8.43 ± 2.6 | 6.04 |  |
| MPLLDIRNLTIEFKTGDEWVKAVDRVSMTLTEGEIRGLVGESGSGKSLIAKAICGVNKDNWRVTADRMRFDDIDLLRLSARERRKLVGHNVSMIFQEPQSCLDPSERVGRQLMQNIPAWTYKGRWWQRFGWRKRRAIELLHRVGIKDHKDAMRSFPYELTEGECQKVMIAIALANQPRLLIADEPTNSMEPTTQAQIFRLLTRLNQNSNTTILLISHDLQMLSQWADKINVLYCGQTVETAPSKELVTMPHHPYTQALIRAIPDFGSAMPHKSRLNTLPGAIPLLEQLPIGCRLGPRCPYAQRECIVTPRLTGAKNHLYACHFPLNMEKE [P0AAH4] | 6.47 ± 1 | 5.65 ± 0.24 | 5.68 ± 0.59 | 5.96 ± 0.44 | 5.11 ± 0.24 | 2.86 ± 0.12 | 5.52 ± 0.2 | 11.19 ± 0.067 | 5.58 ± 0.23 | 10.5 ± 0.24 | 5.43 ± 0.13 | 10.9 ± 0.29 |
| MDVTAKYELIGLMAYPIRHSLSPEMQNKALEKAGLPFTYMAFEVDNDSFPGAIEGLKALKMRGTGVSMPNKQLACEYVDELTPAAKLVGAINTIVNDDGYLRGYNTDGTGHIRAIKESGFDIKGKTMVLLGAGGASTAIGAQGAIEGLKEIKLFNRRDEFFDKALAFAQRVNENTDCVVTVTDLADQQAFAEALASADILTNGTKVGMKPLENESLVNDISLLHPGLLVTECVYNPHMTKLLQQAQQAGCKTIDGYGMLLWQGAEQFTLWTGKDFPLEYVKQVMGFGA [P0A6D5] | 4.77 |  |  |  |  |  |  |  |  |  |  |  |
| MVDKSQETTHFGFQTVAKEQKADMVAHVFHSVASKYDVMNDLMSFGIHRLWKRFTIDCSGVRRGQTVLDLAGGTGDLTAKFSRLVGETGKVVLADINESMLKMGREKLRNIGVIGNVEYVQANAEALPFPDNTFDCITISFGLRNVTDKDKALRSMYRVLKPGGRLLVLEFSKPIIEPLSKAYDAYSFHVLPRIGSLVANDADSYRYLAESIRMHPDQDTLKAMMQDAGFESVDYYNLTAGVVALHRGYKF [P0A887] | 5.402 ± 0.0099 | 4.951 ± 0.013 | 4.18 ± 0.12 | 4.9 ± 0.36 | 4.19 ± 0.076 | 2.405 ± 0.0086 | 4.67 ± 0.086 | 7.96 ± 0.38 | 4.36 ± 0.36 | 8.27 ± 1.5 | 4.45 ± 0.31 | 8.773 ± 0.069 |
| MLKRVFLSLLVLIGLLLLTVLGLDRWMSWKTAPYIYDELQDLPYRQVGVVLGTAKYYRTGVINQYYRYRIQGAINAYNSGKVNYLLLSGDNALQSYNEPMTMRKDLIAAGVDPSDIVLDYAGFRTLDSIVRTRKVFDTNDFIIITQRFHCERALFIALHMGIQAQCYAVPSPKDMLSVRIREFAARFGALADLYIFKREPRFLGPLVPIPAMHQVPEDAQGYPAVTPEQLLELQKKQGK [P0AFY2] | 5.75 ± 0.44 |  | 6.88 ± 0.82 | 5.72 ± 0.66 | 6.021 ± 0.027 | 3.1 ± 0.074 | 5.81 ± 0.24 | 10.9 ± 0.74 | 5.85 ± 0.23 | 11.6 ± 1.1 | 5.92 ± 0.26 | 12.3 ± 0.33 |
| MNDTYQPINCDDYDNLELACQHHLMLTLELKDGEKLQAKASDLVSRKNVEYLVVEAAGETRELRLDKITSFSHPEIGTVVVSES [P0AFW8] |  | 4.86 ± 0.14 | 1.83 | 2.15 ± 0.34 | 1.79 ± 0.12 |  | 1.91 | 3.49 ± 0.41 | 2.05 ± 0.44 | 3.37 | 3.17 ± 1.2 | 5.3 ± 1.6 |
| MRSLADFEFNKAPLCEGMILACEAIRRDFPSQDVYDELERLVSLAKEEISQLLPLEEQLEKLIALFYGDWGFKASRGVYRLSDALWLDQVLKNRQGSAVSLGAVLLWVANRLDLPLLPVIFPTQLILRIECPDGEIWLINPFNGESLSEHMLDVWLKGNISPSAELFYEDLDEADNIEVIRKLLDTLKASLMEENQMELALRTSEALLQFNPEDPYEIRDRGLIYAQLDCEHVALNDLSYFVEQCPEDPISEMIRAQINNIAHKHIVLH [P0AGM5] |  |  |  |  |  | 0.281 |  |  |  |  |  |  |
| MKKIGVAGLQREQIKKTIEATAPGCFEVFIHNDMEAAMKVKSGQLDYYIGACNTGAGAALSIAIAVIGYNKSCTIAKPGIKAKDEHIAKMIAEGKVAFGLSVEHVEHAIPMLINHLK |  |  | 4.29 |  |  | 3.02 |  |  |  |  |  |  |
| MLNLFVGLDIYTGLLLLLALAFVLFYEAINGFHDTANAVAAVIYTRAMQPQLAVVMAAFFNFFGVLLGGLSVAYAIVHMLPTDLLLNMGSTHGLAMVFSMLLAAIIWNLGTWFFGLPASSSHTLIGAIIGIGLTNALLTGSSVMDALNLREVTKIFSSLIVSPIVGLVIAGGLIFLLRRYWSGTKKRDRIHRIPEDRKKKKGKRKPPFWTRIALIVSAAGVAFSHGANDGQKGIGLVMLVLVGIAPAGFVVNMNASGYEITRTRDAVTNFEHYLQQHPELPQKLIAMEPPLPAASTDGTQVTEFHCHPANTFDAIARVKTMLPGNMESYEPLSVSQRSQLRRIMLCISDTSAKLAKLPGVSKEDQNLLKKLRSDMLSTIEYAPVWIIMAVALALGIGTMIGWRRVAMTIGEKIGKRGMTYAQGMAAQMTAAVSIGLASYIGMPVSTTHVLSSAVAGTMVVDGGGLQRKTVTSILMAWVFTLPAAIFLSGGLYWIALQLI | 6.37 | 5.68 |  |  | 5.61 ± 0.43 |  |  |  | 6.47 |  | 6.03 ± 0.27 | 13.1 |
| MRSKYIVIEGLEGAGKTTARNVVVETLEQLGIRDMVFTREPGGTQLAEKLRSLVLDIKSVGDEVITDKAEVLMFYAARVQLVETVIKPALANGTWVIGDRHDLSTQAYQGGGRGIDQHMLATLRDAVLGDFRPDLTLYLDVTPEVGLKRARARGELDRIEQESFDFFNRTRARYLELAAQDKSIHTIDATQPLEAVMDAIRTTVTHWVKELDA [P0A720] | 4.32 ± 0.51 | 4 ± 0.41 | 4.4 ± 0.41 | 4.52 ± 0.32 | 4.25 ± 0.13 | 3.059 ± 0.011 | 5.11 ± 0.073 | 9.9341 ± 0.0012 | 3.93 ± 0.26 | 6.63 ± 0.1 | 5.59 ± 0.5 | 11.3 ± 0.12 |
| MKLNIRAQTAQNQHNNSPIVLVHGLFGSLDNLGVLARDLVNDHNIIQVDMRNHGLSPRDPVMNYPAMAQDLVDTLDAQQIDKATFIGHSMGGKAVMALTALASDRIDKLVAIDIAPVDYHVRRHDEIFAAINAVSESDAQTRQQAAAIMRQHLNEEGVIQFLLKSFVDGEWRFNVPVLWDQYPHIVGWEKIPAWDHPALFIPGGNSPYVSEQYRDDLLAQFPQARAHVIAGAGHWVHAEKPDAVLRAIRRYLND | 5.19 ± 0.27 | 5.13 ± 0.26 | 5.14 ± 0.17 | 5.82 ± 1.4 | 5.07 ± 0.61 | 3.04 ± 0.12 | 5.74 ± 0.4 | 9.16 ± 2.6 | 5.02 ± 0.39 | 10 ± 1.1 | 6.53 ± 0.95 | 12.4 ± 0.16 |
| MSEPLDLNQLAQKIKQWGLELGFQQVGITDTDLSESEPKLQAWLDKQYHGEMDWMARHGMLRARPHELLPGTLRVISVRMNYLPANAAFASTLKNPKLGYVSRYALGRDYHKLLRNRLKKLGEMIQQHCVSLNFRPFVDSAPILERPLAEKAGLGWTGKHSLILNREAGSFFFLGELLVDIPLPVDQPVEEGCGKCVACMTICPTGAIVEPYTVDARRCISYLTIELEGAIPEELRPLMGNRIYGCDDCQLICPWNRYSQLTTEEDFSPRKPLHAPELIELFAWSEEKFLKVTEGSAIRRIGHLRWLRNIAVALGNAPWDETILTALESRKGEHPLLDEHIAWAIAQQIERRNACIVEVQLPKKQRLVRVIEKGLPRDA | 5.59 ± 0.68 |  |  | 2.85 ± 0.33 | 1.41 | > 4 |  |  | 1.85 |  |  | 3.79 |
| MSRMAEQQLYIHGGYTSATSGRTFETINPANGNVLATVQAAGREDVDRAVKSAQQGQKIWASMTAMERSRILRRAVDILRERNDELAKLETLDTGKAYSETSTVDIVTGADVLEYYAGLIPALEGSQIPLRETSFVYTRREPLGVVAGIGAWNYPIQIALWKSAPALAAGNAMIFKPSEVTPLTALKLAEIYSEAGLPDGVFNVLPGVGAETGQYLTEHPGIAKVSFTGGVASGKKVMANSAASSLKEVTMELGGKSPLIVFDDADLDLAADIAMMANFFSSGQVCTNGTRVFVPAKCKAAFEQKILARVERIRAGDVFDPQTNFGPLVSFPHRDNVLRYIAKGKEEGARVLCGGDVLKGDGFDNGAWVAPTVFTDCSDDMTIVREEIFGPVMSILTYESEDEVIRRANDTDYGLAAGIVTADLNRAHRVIHQLEAGICWINTWGESPAEMPVGGYKHSGIGRENGVMTLQSYTQVKSIQVEMAKFQSIF | 5.11 ± 0.25 | 5.45 ± 1.3 | 5.06 ± 0.11 | 5.28 ± 0.61 | 4.486 ± 0.038 |  | 5.21 ± 0.24 | 11.1 ± 0.13 | 4.37 ± 0.14 | 7.63 ± 0.23 | 6 ± 0.24 | 11.7 ± 0.46 |
| MELKDYYAIMGVKPTDDLKTIKTAYRRLARKYHPDVSKEPDAEARFKEVAEAWEVLSDEQRRAEYDQMWQHRNDPQFNRQFHHGDGQSFNAEDFDDIFSSIFGQHARQSRQRPATRGHDIEIEVAVFLEETLTEHKRTISYNLPVYNAFGMIEQEIPKTLNVKIPAGVGNGQRIRLKGQGTPGENGGPNGDLWLVIHIAPHPLFDIVGQDLEIVVPVSPWEAALGAKVTVPTLKESILLTIPPGSQAGQRLRVKGKGLVSKKQTGDLYAVLKIVMPPKPDENTAALWQQLADAQSSFDPRKDWGKA | 6.73 ± 1.4 | 5.61 ± 0.13 | 5.26 ± 0.1 | 6.28 ± 0.45 | 4.99 ± 0.26 | 3.32 ± 0.26 | 5.86 ± 1.2 |  | 4.87 ± 0.37 | 9.91 ± 2.2 | 5.76 ± 0.35 | 12.8 ± 0.6 |
